Test results: patent US20130005646A1 (Novo Nordisk, published 2013)
Each block holds one binder with its values, some of them ahead of it. Starred links: 1 amine or outer side, 2 acyl side, 3 side chain; linkers in the order of their positions; H or OH if unused. Positions of bridges follow the written chain, without caps; N, C: chain ends. Groups on a side chain read outwards from the residue. No end group written: not given here. *: point of attachment. C20 diacid = O=C(O)CCCCCCCCCCCCCCCCCCC(=O)*; γGlu = O=C(O)[C@H](CCC(=O)[*:2])N[*:1]; AEEA = NCCOCCOCC(=O)O

Key:
[1] = biological target: T1, human amylin 3(a) receptor (human calcitonin receptor + RAMP-3) (human, UniProt P30988 25-474; O60896 24-148); experiment: cell-based or functional assay
T1 sequence (looked up) 1: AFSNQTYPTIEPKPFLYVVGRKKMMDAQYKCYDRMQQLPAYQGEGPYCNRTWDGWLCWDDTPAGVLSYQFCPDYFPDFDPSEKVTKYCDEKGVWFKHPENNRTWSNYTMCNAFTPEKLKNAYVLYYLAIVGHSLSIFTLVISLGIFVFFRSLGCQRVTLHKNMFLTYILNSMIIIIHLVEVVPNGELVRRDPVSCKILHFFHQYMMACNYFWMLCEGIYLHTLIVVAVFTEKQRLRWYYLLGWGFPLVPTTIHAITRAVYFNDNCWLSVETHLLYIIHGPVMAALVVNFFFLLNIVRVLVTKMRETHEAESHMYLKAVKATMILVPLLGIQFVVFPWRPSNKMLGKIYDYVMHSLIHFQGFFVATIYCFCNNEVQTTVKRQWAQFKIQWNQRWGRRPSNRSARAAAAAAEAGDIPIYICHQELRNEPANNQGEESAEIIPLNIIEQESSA
T1 sequence (looked up) 2: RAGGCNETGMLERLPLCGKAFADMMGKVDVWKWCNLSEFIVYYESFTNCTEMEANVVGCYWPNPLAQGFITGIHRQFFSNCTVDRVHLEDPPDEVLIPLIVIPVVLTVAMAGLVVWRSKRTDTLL

[2] = biological target: T2, human calcitonin (a) receptor (human, UniProt P30988 25-474); experiment: cell-based or functional assay
T2 sequence (looked up): T1 sequence (looked up) 1

Binder: KCNTATCATQRLAEFLVHSSK([AEEA-AEEA-γGlu-19‑carboxyheptadecanoyl])NFGPILSRTNVGSHTY-NH2 (disulfide 2-7)
Amylin receptor human EC50 [1]: 540 pM
CTa receptor human EC50 [2]: 229 pM

Binder: KCNTATCATQRLAEFLHHSSK([AEEA-AEEA-γGlu-19‑carboxyheptadecanoyl])NFGPILSSTNVGSHTY-NH2 (disulfide 2-7)
Amylin receptor human EC50 [1]: 1030 pM
CTa receptor human EC50 [2]: 319 pM

Binder: KCNTATCATQRLAEFLVRSSK([AEEA-AEEA-γGlu-19‑carboxyheptadecanoyl])NFGPILSRTNVGSRTY-NH2 (disulfide 2-7)
Amylin receptor human EC50 [1]: 344 pM
CTa receptor human EC50 [2]: 732 pM

B1: N-epsilon1-[(S)-4-Carboxy-4-(19-carboxynonadecanoylamino)butyryl]-[Glu14,His17,Gln21,Ala25,Pro26,Ser28,Ser29,Pro37]-pramlintide (peptide)
peptide: K([γGlu-C20 diacid])CNTATCATQRLAEFLHHSSQNFGAPLSSTNVGSNTP-NH2
modifications: disulfide 2-7; N-terminus assumed
SMILES: CC(C)C[C@H](NC(=O)[C@H](CCCNC(=N)N)NC(=O)[C@H](CCC(N)=O)NC(=O)[C@@H](NC(=O)[C@H](C)NC(=O)[C@@H]1CSSC[C@H](NC(=O)[C@@H](N)CCCCNC(=O)CC[C@H](NC(=O)CCCCCCCCCCCCCCCCCCC(=O)O)C(=O)O)C(=O)N[C@@H](CC(N)=O)C(=O)N[C@@H]([C@@H](C)O)C(=O)N[C@@H](C)C(=O)N[C@@H]([C@@H](C)O)C(=O)N1)[C@@H](C)O)C(=O)N[C@@H](C)C(=O)N[C@@H](CCC(=O)O)C(=O)N[C@@H](Cc1ccccc1)C(=O)N[C@@H](CC(C)C)C(=O)N[C@@H](Cc1c[nH]cn1)C(=O)N[C@@H](Cc1c[nH]cn1)C(=O)N[C@@H](CO)C(=O)N[C@@H](CO)C(=O)N[C@@H](CCC(N)=O)C(=O)N[C@@H](CC(N)=O)C(=O)N[C@@H](Cc1ccccc1)C(=O)NCC(=O)N[C@@H](C)C(=O)N1CCC[C@H]1C(=O)N[C@@H](CC(C)C)C(=O)N[C@@H](CO)C(=O)N[C@@H](CO)C(=O)N[C@H](C(=O)N[C@@H](CC(N)=O)C(=O)N[C@H](C(=O)NCC(=O)N[C@@H](CO)C(=O)N[C@@H](CC(N)=O)C(=O)N[C@H](C(=O)N1CCC[C@H]1C(N)=O)[C@@H](C)O)C(C)C)[C@@H](C)O
Amylin receptor human EC50 [1]: 209 pM
CTa receptor human EC50 [2]: 67.5 pM

Binder: KCNTATCATQRLAEFLHHSSK([AEEA-AEEA-γGlu-19‑carboxyheptadecanoyl])NFGPILSPTNVGSHTY-NH2 (disulfide 2-7)
Amylin receptor human EC50 [1]: 625 pM
CTa receptor human EC50 [2]: 347 pM

Further lines, results first:

Amylin receptor human EC50 [1]: 43 pM
CTa receptor human EC50 [2]: 41 pM
B2: N-alpha-[(S)-4-Carboxy-4-(19-carboxynonadecanoylamino)butyryl]-Gly-[Arg1,Glu14,Arg17,Pro37]-pramlintide (peptide)
peptide: {C20 diacid-γGlu}-GRCNTATCATQRLAEFLRHSSNNFGPILPPTNVGSNTP-NH2
modifications: disulfide 3-8
SMILES: CC[C@H](C)[C@H](NC(=O)[C@@H]1CCCN1C(=O)CNC(=O)[C@H](Cc1ccccc1)NC(=O)[C@H](CC(N)=O)NC(=O)[C@H](CC(N)=O)NC(=O)[C@H](CO)NC(=O)[C@H](CO)NC(=O)[C@H](Cc1c[nH]cn1)NC(=O)[C@H](CCCNC(=N)N)NC(=O)[C@H](CC(C)C)NC(=O)[C@H](Cc1ccccc1)NC(=O)[C@H](CCC(=O)O)NC(=O)[C@H](C)NC(=O)[C@H](CC(C)C)NC(=O)[C@H](CCCNC(=N)N)NC(=O)[C@H](CCC(N)=O)NC(=O)[C@@H](NC(=O)[C@H](C)NC(=O)[C@@H]1CSSC[C@H](NC(=O)[C@H](CCCNC(=N)N)NC(=O)CNC(=O)CC[C@H](NC(=O)CCCCCCCCCCCCCCCCCCC(=O)O)C(=O)O)C(=O)N[C@@H](CC(N)=O)C(=O)N[C@@H]([C@@H](C)O)C(=O)N[C@@H](C)C(=O)N[C@@H]([C@@H](C)O)C(=O)N1)[C@@H](C)O)C(=O)N[C@@H](CC(C)C)C(=O)N1CCC[C@H]1C(=O)N1CCC[C@H]1C(=O)N[C@H](C(=O)N[C@@H](CC(N)=O)C(=O)N[C@H](C(=O)NCC(=O)N[C@@H](CO)C(=O)N[C@@H](CC(N)=O)C(=O)N[C@H](C(=O)N1CCC[C@H]1C(N)=O)[C@@H](C)O)C(C)C)[C@@H](C)O

Amylin receptor human EC50 [1]: 80.5 pM
CTa receptor human EC50 [2]: 83 pM
B3: N-alpha-[(S)-4-Carboxy-4-(19-carboxynonadecanoylamino)butyryl]-[Lys11,Glu14,His17,Pro37]-pramlintide (peptide)
peptide: {C20 diacid-γGlu}-KCNTATCATQKLAEFLHHSSNNFGPILPPTNVGSNTP-NH2
modifications: disulfide 2-7
SMILES: CC[C@H](C)[C@H](NC(=O)[C@@H]1CCCN1C(=O)CNC(=O)[C@H](Cc1ccccc1)NC(=O)[C@H](CC(N)=O)NC(=O)[C@H](CC(N)=O)NC(=O)[C@H](CO)NC(=O)[C@H](CO)NC(=O)[C@H](Cc1c[nH]cn1)NC(=O)[C@H](Cc1c[nH]cn1)NC(=O)[C@H](CC(C)C)NC(=O)[C@H](Cc1ccccc1)NC(=O)[C@H](CCC(=O)O)NC(=O)[C@H](C)NC(=O)[C@H](CC(C)C)NC(=O)[C@H](CCCCN)NC(=O)[C@H](CCC(N)=O)NC(=O)[C@@H](NC(=O)[C@H](C)NC(=O)[C@@H]1CSSC[C@H](NC(=O)[C@H](CCCCN)NC(=O)CC[C@H](NC(=O)CCCCCCCCCCCCCCCCCCC(=O)O)C(=O)O)C(=O)N[C@@H](CC(N)=O)C(=O)N[C@@H]([C@@H](C)O)C(=O)N[C@@H](C)C(=O)N[C@@H]([C@@H](C)O)C(=O)N1)[C@@H](C)O)C(=O)N[C@@H](CC(C)C)C(=O)N1CCC[C@H]1C(=O)N1CCC[C@H]1C(=O)N[C@H](C(=O)N[C@@H](CC(N)=O)C(=O)N[C@H](C(=O)NCC(=O)N[C@@H](CO)C(=O)N[C@@H](CC(N)=O)C(=O)N[C@H](C(=O)N1CCC[C@H]1C(N)=O)[C@@H](C)O)C(C)C)[C@@H](C)O

Amylin receptor human EC50 [1]: 91 pM
CTa receptor human EC50 [2]: 59.5 pM
B4: N-alpha-[(S)-4-Carboxy-4-(19-carboxynonadecanoylamino)butyryl]-[Glu14,His17,Thr21,Pro37]-pramlintide (peptide)
peptide: {C20 diacid-γGlu}-KCNTATCATQRLAEFLHHSSTNFGPILPPTNVGSNTP-NH2
modifications: disulfide 2-7
SMILES: CC[C@H](C)[C@H](NC(=O)[C@@H]1CCCN1C(=O)CNC(=O)[C@H](Cc1ccccc1)NC(=O)[C@H](CC(N)=O)NC(=O)[C@@H](NC(=O)[C@H](CO)NC(=O)[C@H](CO)NC(=O)[C@H](Cc1c[nH]cn1)NC(=O)[C@H](Cc1c[nH]cn1)NC(=O)[C@H](CC(C)C)NC(=O)[C@H](Cc1ccccc1)NC(=O)[C@H](CCC(=O)O)NC(=O)[C@H](C)NC(=O)[C@H](CC(C)C)NC(=O)[C@H](CCCNC(=N)N)NC(=O)[C@H](CCC(N)=O)NC(=O)[C@@H](NC(=O)[C@H](C)NC(=O)[C@@H]1CSSC[C@H](NC(=O)[C@H](CCCCN)NC(=O)CC[C@H](NC(=O)CCCCCCCCCCCCCCCCCCC(=O)O)C(=O)O)C(=O)N[C@@H](CC(N)=O)C(=O)N[C@@H]([C@@H](C)O)C(=O)N[C@@H](C)C(=O)N[C@@H]([C@@H](C)O)C(=O)N1)[C@@H](C)O)[C@@H](C)O)C(=O)N[C@@H](CC(C)C)C(=O)N1CCC[C@H]1C(=O)N1CCC[C@H]1C(=O)N[C@H](C(=O)N[C@@H](CC(N)=O)C(=O)N[C@H](C(=O)NCC(=O)N[C@@H](CO)C(=O)N[C@@H](CC(N)=O)C(=O)N[C@H](C(=O)N1CCC[C@H]1C(N)=O)[C@@H](C)O)C(C)C)[C@@H](C)O

Amylin receptor human EC50 [1]: 129 pM
CTa receptor human EC50 [2]: 453 pM
B5: N-alpha-[(S)-4-Carboxy-4-(19-carboxynonadecanoylamino)butyryl]-[Arg14,Arg17,Pro37]-pramlintide (peptide)
peptide: {C20 diacid-γGlu}-KCNTATCATQRLARFLRHSSNNFGPILPPTNVGSNTP-NH2
modifications: disulfide 2-7
SMILES: CC[C@H](C)[C@H](NC(=O)[C@@H]1CCCN1C(=O)CNC(=O)[C@H](Cc1ccccc1)NC(=O)[C@H](CC(N)=O)NC(=O)[C@H](CC(N)=O)NC(=O)[C@H](CO)NC(=O)[C@H](CO)NC(=O)[C@H](Cc1c[nH]cn1)NC(=O)[C@H](CCCNC(=N)N)NC(=O)[C@H](CC(C)C)NC(=O)[C@H](Cc1ccccc1)NC(=O)[C@H](CCCNC(=N)N)NC(=O)[C@H](C)NC(=O)[C@H](CC(C)C)NC(=O)[C@H](CCCNC(=N)N)NC(=O)[C@H](CCC(N)=O)NC(=O)[C@@H](NC(=O)[C@H](C)NC(=O)[C@@H]1CSSC[C@H](NC(=O)[C@H](CCCCN)NC(=O)CC[C@H](NC(=O)CCCCCCCCCCCCCCCCCCC(=O)O)C(=O)O)C(=O)N[C@@H](CC(N)=O)C(=O)N[C@@H]([C@@H](C)O)C(=O)N[C@@H](C)C(=O)N[C@@H]([C@@H](C)O)C(=O)N1)[C@@H](C)O)C(=O)N[C@@H](CC(C)C)C(=O)N1CCC[C@H]1C(=O)N1CCC[C@H]1C(=O)N[C@H](C(=O)N[C@@H](CC(N)=O)C(=O)N[C@H](C(=O)NCC(=O)N[C@@H](CO)C(=O)N[C@@H](CC(N)=O)C(=O)N[C@H](C(=O)N1CCC[C@H]1C(N)=O)[C@@H](C)O)C(C)C)[C@@H](C)O
